# Patent publication US20010025379A1
# Legend:
# Assay in all cases: yeast two-hybrid, liquid β-galactosidase quantification
# [1] = biological target: Cdc2b in the GAL4 DNA-binding domain vector (yeast two-hybrid fusion) (Arabidopsis thaliana)
# [2] = biological target: cycD1;1 in the GAL4 DNA-binding domain vector (yeast two-hybrid fusion) (Arabidopsis thaliana)
# [3] = biological target: Cdc2a in the GAL4 DNA-binding domain vector (yeast two-hybrid fusion) (Arabidopsis thaliana)
# [4] = biological target: cycB1;1 in the GAL4 DNA-binding domain vector (yeast two-hybrid fusion) (Arabidopsis thaliana)
# [5] = biological target: ATMAP2 in the GAL4 DNA-binding domain vector (yeast two-hybrid fusion) (Arabidopsis thaliana)
# [6] = biological target: cycB2;2 in the GAL4 DNA-binding domain vector (yeast two-hybrid fusion) (Arabidopsis thaliana)
# [7] = biological target: cycA2;2 in the GAL4 DNA-binding domain vector (yeast two-hybrid fusion) (Arabidopsis thaliana)
# [8] = biological target: cycD2;1 in the GAL4 DNA-binding domain vector (yeast two-hybrid fusion) (Arabidopsis thaliana)
# [9] = biological target: DB-vector alone (GAL4 DNA-binding domain without insert), control (UniProt P04386)
# [10] = biological target: PCNAAt in the GAL4 DNA-binding domain vector (yeast two-hybrid fusion) (Arabidopsis thaliana)
# [11] = biological target: cycD3;1 in the GAL4 DNA-binding domain vector (yeast two-hybrid fusion / bait) (Arabidopsis thaliana)
substance,measurement,setting,value
ICK1 in a GAL4-activation domain vector (yeast two-hybrid fusion) (from UniProt P04386 768-881),Quantification,[1],0
same,Quantification,[2],3.13
same,Quantification,[3],2.65
same,Quantification,[4],0.06
same,Quantification,[5],0
same,Quantification,[6],0.05
same,Quantification,[7],0.03
same,Quantification,[8],14.8
same,Quantification,[9],0
same,Quantification,[10],0
same,Quantification,[11],22.7
